Source: the supplement of paper PMC9170038

Tested on: MS2 coat protein
Experiment: apparent KD of MS2 coat protein; designed switch direction (-1 OFF switch, 1 ON switch): -1; higher = weaker reporter binding
Method in brief: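 The buffer was Tris-HCl pH 7.5 with KCl, MgCl2, BSA, DTT, tRNA and Tween-20. In it, SNAP-549-labelled MS2 coat protein was titrated in doubling steps from 0.7 or 1.5 nM to 3 µM over chip-bound RNA switches transcribed by stalled E. coli RNA polymerase on Illumina chips. Apparent KD is the per-design median over clusters of curve fits to normalised fluorescence.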

[1] = input ligand: microRNA oligo, concentration not stated
[2] = Eterna round: R95, input ligand: microRNA oligo, concentration not stated

Sequence	apparent KD of MS2 coat protein (input ligand: FMN 200 uM) [nM]	apparent KD of MS2 coat protein (input ligand: none) [nM]	other results
GCUAGAGCAGGAUAUCUAGAUCCUCACAUGAGGAUCACCCAUGUAGUCGAAAGACUAAGAAGAGAAGGGCUCUAGC [Omei Ex5 E17] (Eterna round: R97, puzzle: Exclusion 5)	133	8.81	–
GCUCCUCCUGUUAGGAUAUGCUUCGGGCUUCCGCAGCAGAAGGAACAUGAGGAUCACCCAUGUCAAAUAAAAUC [Brourd's mod of Ex.4 - Mod Inxebexe (Scored 85 R3.2)] (Eterna round: R97, puzzle: Brourd's mod of Exclusion 4)	223	76.2	–
GCUCGCGGGCAAGGAUAUCCUACGCUGUUCUGGCCCGUGUCUGUUACAUGAGGAUCACCCAUGUGGGAGAAGGUGCACCAGGGC [Design 46] (Eterna round: R96, puzzle: Exclusion NG 2)	19.7	19.1	apparent KD of MS2 coat protein [1]: 11.9 nM
GCUGCUAGAGGAUAUACAUGAGGAUCACCCAUGUGAAAUUAUAGUGAGGAAAUGAAAAGUAGAAGGCUAGUAGA [Mod of Mat 16 - Jieux - Exclusion 3] (Eterna round: R97, puzzle: Exclusion 3)	381	36.2	–
GCUGGGUCAGGAUAUACAAGAUCGAAAGAUCAAAGAUUCGUACAUGAGGAUCACCCAUGUAGAAGGGACUGGGC [ChP 11-04-2015 #8] (puzzle: Exclusion 2)	–	–	apparent KD of MS2 coat protein [2]: 17.2 nM
GCUGGGUCAGGAUAUACAAGAUCGAAAGAUCUGUGAAACGAACAUGAGGAUCACCCAUGUAGAAGGGACUGGGC [ChP 11-04-2015 #9] (puzzle: Exclusion 2)	–	–	apparent KD of MS2 coat protein [2]: 16.6 nM
GCUGGUCAAGGAUAUACAUGAGGAUCACCCAUGUAGAUCAACCAGCGAUAGCUGGAAUGUAGAAGGUGACCAGC [E3/5-C1] (Eterna round: R97, puzzle: Exclusion 3)	48.4	15.5	–
GCUGGUCGAGGAUAUACAUGAGGAUCACCCAUGUUGAUCAACUGCCGAUAGGCAGAAUGUAGAAGGCGACCAGC [E3/7-A1] (Eterna round: R97, puzzle: Exclusion 3)	137	1110	–
GCUGGUCGAGGAUAUAUAUGACGUGCUUCGGCACGAAGGUCACAUGAGGAUCACCCAUGUAGAAGGUGACCAGC [E2/9-B1] (Eterna round: R97, puzzle: Exclusion 2)	110	42	–
GCUGUGAAUCAGGAUAUGCGGAUAAAGAGUGCCGCAGAAGGGAUAACAUGAGGAUCACCCAUGUUCCUGCAUGA [Eternabot (L2) Solution 99] (Eterna round: R97, puzzle: Exclusion 6)	26.5	20.9	–
GGAAAGUGAGGAUAUGGUAAAGUAAGUAUGUAGUAAGUAAUCCAGAAGGCACAUGAGGAUCACCCAUGUAAAUG [Mat - Exclusion 4 - D100] (puzzle: Exclusion 4)	–	–	apparent KD of MS2 coat protein [2]: 27.2 nM
GGAAGGCGAGGAUAUACAAUAAAGAAAGAGAAAGACGUGAGACAUGAGGAUCACCCAUGUAGAAGGUGCGGAGA [AK-MS2ROC-r4-exclusion2-13] (Eterna round: R97, puzzle: Exclusion 2)	37.3	34.3	–
GGACCAAGUCUAGGAUAUUUCAAUAGUUGUGUGAGAGAAGGAGAAUAACAUGAGGAUCACCCAUGUACCUCAAGUAGGCCGAUU [Eternabot solution 16] (Eterna round: R96, puzzle: Exclusion NG 1)	59.2	48	apparent KD of MS2 coat protein [1]: 36.2 nM
GGACCGAGUGUGAGGAUAUGCUGGUCCUUGGAUCAGCAGAAGGCACAUGAGGAUCACCCAUGUGGAGACGGUCC [Eli bmx4 4.33] (Eterna round: R97, puzzle: Brourd's mod of Exclusion 4)	1050	87.4	–
GGACCUCCUGAGGAUAUUGUAUCACCCGACUGAUAAGAAGGCAGAACAUGAGGAUCACCCAUGUGGGUACUCGG [Bingo-Bango-14] (Eterna round: R97, puzzle: Exclusion 6)	34.6	38.4	–
GGAGAGUGAGGAUAUACAUGAGGAUCACCCAUGUAUAUCAAAUAAAAUAAAUUCUCAUGUAGAAGGCGCUUUUC [Alacar 3rd Attempt] (Eterna round: R97, puzzle: Exclusion 3)	16.2	14.4	–
GGAGAUCGAGGAUAUACAUGAGGAUCACCCAUGUCCGUAGACUGGGAUCGCGGCAGUGGUAGAAGGUGGAAAAU [Eternabot (L2) Solution 67] (Eterna round: R97, puzzle: Exclusion 3)	112	160	–

Sequence	apparent KD of MS2 coat protein (input ligand: FMN 200 uM) [nM]	apparent KD of MS2 coat protein (input ligand: none) [nM]	other results
GGAGCAAGUGUCAGGAUAUCGUGGUCGAUAGAUCACGAGAAGGGACAUGAGGAUCACCCAUGUGCCUCAGCUCC [Mat - Exclusion 4 - Eli Mod - D60] (Eterna round: R97, puzzle: Brourd's mod of Exclusion 4)	736	214	–
GGAGGACGAGCAGGAUAUUUUCACAUGAGGAUCACCCAUGUGUACUCAGGGUAAUCCUCCGCCGAAAAGAAGGGUUCGGAAUAA [Mat - Exclusion NG 2 - Mod of JL - D81] (Eterna round: R96, puzzle: Exclusion NG 2)	39.8	74.1	apparent KD of MS2 coat protein [1]: 27.8 nM
GGAGGAGAGUUAGGAUAUACAAGAAGAAUGUGAGUAGAAGGAACGGAACAUGAGGAUCACCCAUGUCCCAUGUGGAGGAGGAGG [Kawasakiqro] (Eterna round: R96, puzzle: Exclusion NG 1)	46.2	30.9	apparent KD of MS2 coat protein [1]: 25.3 nM
GGAGGUAUUUAGGAUAUGAUGUACGACGCAGGUUCAGAAGGGAGUACAUGAGGAUCACCCAUGUGGCCUCAUCC [Eternabot (L2) Solution 47] (Eterna round: R97, puzzle: Exclusion 6)	1200	2010	–
GGAUAGUGAGGAUAUCGAUGUUAGGAGGAGGAGGUAGGAGGCGAGAAGGCACAUGAGGAUCACCCAUGUAUGGU [JR_Exclu4_Sub069] (puzzle: Exclusion 4)	–	–	apparent KD of MS2 coat protein [2]: 28.2 nM
GGAUCAUAUGUCAGGAUAUGCUGGACCUUGGUUCAGCAGAAGGGACAUGAGGAUCACCCAUGUCAUGGAGAUCC [Mat - Exclusion 4 - Eli Mod - D53] (Eterna round: R97, puzzle: Brourd's mod of Exclusion 4)	270	415	–
GGAUCGAAUGUGAGGAUAUGCUGGUCCUUGGAUCAGCAGAAGGCACAUGAGGAUCACCCAUGUGAUCAAGAUCC [Eli bmx4 4.77] (Eterna round: R97, puzzle: Brourd's mod of Exclusion 4)	58.3	910	–
GGAUCGAGAGUGAGGAUAUGCUGGUCCUUGGAUCAGCAGAAGGCACAUGAGGAUCACCCAUGUGAUUUCGAUCC [Mat - Exclusion 4 - Eli Mod - D40] (Eterna round: R97, puzzle: Brourd's mod of Exclusion 4)	34.6	18.1	–
GGAUCGAGUGUGAGGAUAUACCACUGGAUACAGUGGUAGAAGGCACAUGAGGAUCACCCAUGUCCUUACGAUCC [Fiskers BMX 4 - 46] (puzzle: Brourd's mod of Exclusion 4)	–	–	apparent KD of MS2 coat protein [2]: 66 nM
GGAUCGAGUGUGAGGAUAUGCAGGUCCUUGGAUCUGCAGAAGGCACAUGAGGAUCACCCAUGUGGAAACGGUCC [Mat - Exclusion 4 - JL Mod - D76] (puzzle: Brourd's mod of Exclusion 4)	–	–	apparent KD of MS2 coat protein [2]: 58.9 nM
GGAUGCUGAGUAAGGAUAUGGUAGGCUUGCGCAAACCAGAAGGUACAUGAGGAUCACCCAUGUAAGCAUCCAGU [eternacac ex4r4 #4] (Eterna round: R97, puzzle: Brourd's mod of Exclusion 4)	16.3	14.5	–
GGAUGCUGAGUAAGGAUAUGGUAGGCUUGCGCCUACCAGAAGGUACAUGAGGAUCACCCAUGUUAGCAUCCAGU [eternacac ex4r4 #3] (Eterna round: R97, puzzle: Brourd's mod of Exclusion 4)	19.6	16.2	–
GGAUUCUCGCAAGGAUAUCGCUUACAUCCUAAGCGAGAAGGUGCUACCAACUUGAGGAUCACCCAAGUGACUUGGGCCUAAAUA [Mutated MS2 EX1.27] (Eterna round: R96, puzzle: Exclusion NG 1)	112	62.9	apparent KD of MS2 coat protein [1]: 34.2 nM
GGCAAAUUUGUAAGGAUAUUGAGCAGCGAAGAGCUCGAGAAGGUACAUGAGGAUCACCCAUGUUUCUCAGACGC [Eternabot (Original) Solution 49] (Eterna round: R97, puzzle: Brourd's mod of Exclusion 4)	43.4	17.7	–
GGCAAUAACGAGGAUAUCCUAUGGGAAACCAUAGGAGAAGGUGUAACAUGAGGAUCACCCAUGUUCCUCAAGCC [Mat - Exclusion 6 - Eli Mod - D67] (puzzle: Exclusion 6)	–	–	apparent KD of MS2 coat protein (Eterna round: R95, input ligand: FMN 200 uM): 43.3 nM; apparent KD of MS2 coat protein [2]: 34.7 nM; apparent KD of MS2 coat protein (Eterna round: R95, input ligand: none): 39.8 nM
GGCAAUAACGAGGAUAUCGUAUCGGAAACGAUACGAGAAGGUGUAACAUGAGGAUCACCCAUGUUCCUUAAGCC [Fiskers Ex 6 - 9] (puzzle: Exclusion 6)	–	–	apparent KD of MS2 coat protein [2]: 23.5 nM
GGCACACAUGAGGAUCACCCAUGUGAGGAUAUGCUGCGAUCGUCGAUAGACGAUAGCAGUAGAAGGCACAUGCC [Mat - Exclusion 1 - Eli Mod - D7] (Eterna round: R97, puzzle: Exclusion 1)	25.9	19.1	–
